# Earlier results, collected in publication PMC3505813.
# Experiments:
# [1] = target: VCAM-1 (Homo sapiens) (UniProt P19320)
# [2] = target: aminopeptidase N (APN) (Homo sapiens) (UniProt P15144)
# Chain of UniProt P15144 (P15144 2-967): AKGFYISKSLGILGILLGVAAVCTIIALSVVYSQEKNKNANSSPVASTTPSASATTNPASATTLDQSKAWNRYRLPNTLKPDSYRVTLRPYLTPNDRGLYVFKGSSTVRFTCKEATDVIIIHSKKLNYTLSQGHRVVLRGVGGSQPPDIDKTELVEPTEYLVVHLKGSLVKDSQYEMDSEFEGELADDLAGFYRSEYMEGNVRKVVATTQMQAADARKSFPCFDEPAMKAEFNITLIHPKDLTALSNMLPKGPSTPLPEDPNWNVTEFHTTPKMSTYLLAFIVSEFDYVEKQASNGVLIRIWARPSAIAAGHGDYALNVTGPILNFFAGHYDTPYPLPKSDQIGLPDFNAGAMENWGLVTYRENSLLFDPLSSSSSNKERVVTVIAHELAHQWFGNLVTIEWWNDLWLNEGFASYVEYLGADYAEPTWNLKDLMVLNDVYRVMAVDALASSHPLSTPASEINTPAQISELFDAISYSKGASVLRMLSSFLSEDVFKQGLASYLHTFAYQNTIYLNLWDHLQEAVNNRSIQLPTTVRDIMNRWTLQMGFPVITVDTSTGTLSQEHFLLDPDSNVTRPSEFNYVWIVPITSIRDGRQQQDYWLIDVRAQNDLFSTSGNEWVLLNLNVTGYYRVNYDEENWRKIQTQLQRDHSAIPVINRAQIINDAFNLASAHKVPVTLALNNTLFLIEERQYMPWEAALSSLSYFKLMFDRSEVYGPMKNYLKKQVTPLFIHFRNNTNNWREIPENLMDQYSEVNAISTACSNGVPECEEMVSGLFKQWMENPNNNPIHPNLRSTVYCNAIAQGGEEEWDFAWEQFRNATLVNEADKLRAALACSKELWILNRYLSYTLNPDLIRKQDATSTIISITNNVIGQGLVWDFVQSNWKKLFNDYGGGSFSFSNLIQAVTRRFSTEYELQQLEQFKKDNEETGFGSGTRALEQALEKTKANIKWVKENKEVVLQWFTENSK
# Chain of UniProt P19320 (P19320 25-698): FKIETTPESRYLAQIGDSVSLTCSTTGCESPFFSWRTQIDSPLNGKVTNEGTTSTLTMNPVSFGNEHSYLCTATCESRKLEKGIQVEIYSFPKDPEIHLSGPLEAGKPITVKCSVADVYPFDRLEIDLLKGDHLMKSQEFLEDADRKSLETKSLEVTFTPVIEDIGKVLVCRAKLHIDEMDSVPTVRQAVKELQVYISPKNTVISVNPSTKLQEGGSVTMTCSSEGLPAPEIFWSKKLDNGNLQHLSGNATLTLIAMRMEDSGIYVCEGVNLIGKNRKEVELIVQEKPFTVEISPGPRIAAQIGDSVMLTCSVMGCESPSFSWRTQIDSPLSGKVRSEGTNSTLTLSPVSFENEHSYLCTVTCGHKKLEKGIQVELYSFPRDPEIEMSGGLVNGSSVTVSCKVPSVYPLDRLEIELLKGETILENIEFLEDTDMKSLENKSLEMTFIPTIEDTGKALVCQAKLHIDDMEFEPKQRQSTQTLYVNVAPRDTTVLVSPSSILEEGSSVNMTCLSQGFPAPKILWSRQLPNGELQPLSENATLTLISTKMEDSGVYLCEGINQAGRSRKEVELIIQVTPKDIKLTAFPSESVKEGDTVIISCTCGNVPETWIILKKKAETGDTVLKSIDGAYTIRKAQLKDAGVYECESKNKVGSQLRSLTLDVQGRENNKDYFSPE
Kd [1],Kd [2],Substance
30 µM,–,VHP peptide
–,300 µM,NGR peptide
